One block for each binder: values may come before it. Starred links: 1 amine or outer side, 2 acyl side, 3 side chain; linkers in the order of their positions; H or OH if unused. Non-standard residues stand in square brackets, D forms with d. Tyr(Bzl) = Obtyr, O-benzyl-L-tyrosine, O=C([C@H](Cc1ccc(OCc2ccccc2)cc1)N[*:1])[*:2]; Tyr(Me) = Omtyr, O-methyl-L-tyrosine, COc1ccc(C[C@H](N[*:1])C(=O)[*:2])cc1; Obtyr = O-benzyl-L-tyrosine, O=C([C@H](Cc1ccc(OCc2ccccc2)cc1)N[*:1])[*:2]; Phe(4-tBu) = CC(C)(C)c1ccc(C[C@H](N)C(=O)O)cc1; Phe(4-NH2) = Nc1ccc(C[C@H](N)C(=O)O)cc1; Phe(4-F) = N[C@@H](Cc1ccc(F)cc1)C(=O)O; 1Nal = N[C@@H](Cc1cccc2ccccc12)C(=O)O; 2Nal = N[C@@H](Cc1ccc2ccccc2c1)C(=O)O; Cya = N[C@@H](CS(=O)(=O)O)C(=O)O; 3Pal = N[C@@H](Cc1cccnc1)C(=O)O; 4Pal = N[C@@H](Cc1ccncc1)C(=O)O
Molecular target: Sushi domains (SD1/2) protein of GABAB1a (GB1a)
Sequence (Q9Z0U4 29-158): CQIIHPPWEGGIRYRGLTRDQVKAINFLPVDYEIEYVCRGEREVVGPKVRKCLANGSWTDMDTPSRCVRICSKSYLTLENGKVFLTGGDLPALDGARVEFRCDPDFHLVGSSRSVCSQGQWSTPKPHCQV
Experiment: FP competition vs TAMRA AJAP-1probe

Ki: 9.3 nM
B1: peptide 33 (peptide)
peptide: Ac-EDDD[Obtyr]IDWYDSDDD-NH2
SMILES: CC[C@H](C)[C@H](NC(=O)[C@H](Cc1ccc(OCc2ccccc2)cc1)NC(=O)[C@H](CC(=O)O)NC(=O)[C@H](CC(=O)O)NC(=O)[C@H](CC(=O)O)NC(=O)[C@H](CCC(=O)O)NC(C)=O)C(=O)N[C@@H](CC(=O)O)C(=O)N[C@@H](Cc1c[nH]c2ccccc12)C(=O)N[C@@H](Cc1ccc(O)cc1)C(=O)N[C@@H](CC(=O)O)C(=O)N[C@@H](CO)C(=O)N[C@@H](CC(=O)O)C(=O)N[C@@H](CC(=O)O)C(=O)N[C@@H](CC(=O)O)C(N)=O

Ki: 5.3 nM
B2: peptide 21 (peptide)
peptide: Ac-EDDD[2Nal]IDWGPTSDDD-NH2
SMILES: CC[C@H](C)[C@H](NC(=O)[C@H](Cc1ccc2ccccc2c1)NC(=O)[C@H](CC(=O)O)NC(=O)[C@H](CC(=O)O)NC(=O)[C@H](CC(=O)O)NC(=O)[C@H](CCC(=O)O)NC(C)=O)C(=O)N[C@@H](CC(=O)O)C(=O)N[C@@H](Cc1c[nH]c2ccccc12)C(=O)NCC(=O)N1CCC[C@H]1C(=O)N[C@H](C(=O)N[C@@H](CO)C(=O)N[C@@H](CC(=O)O)C(=O)N[C@@H](CC(=O)O)C(=O)N[C@@H](CC(=O)O)C(N)=O)[C@@H](C)O

Ki: 31200 nM
B3: Scr-20 (peptide)
peptide: Ac-[2Nal]EDSDDYDDIDDDW-NH2
SMILES: CC[C@H](C)[C@H](NC(=O)[C@H](CC(=O)O)NC(=O)[C@H](CC(=O)O)NC(=O)[C@H](Cc1ccc(O)cc1)NC(=O)[C@H](CC(=O)O)NC(=O)[C@H](CC(=O)O)NC(=O)[C@H](CO)NC(=O)[C@H](CC(=O)O)NC(=O)[C@H](CCC(=O)O)NC(=O)[C@H](Cc1ccc2ccccc2c1)NC(C)=O)C(=O)N[C@@H](CC(=O)O)C(=O)N[C@@H](CC(=O)O)C(=O)N[C@@H](CC(=O)O)C(=O)N[C@@H](Cc1c[nH]c2ccccc12)C(N)=O

Ki: 3860 nM
B4: EDDSDVW(Obtyr)GGADTD (peptide)
peptide: Ac-EDDSDVW[Tyr(Bzl)]GGADTD-NH2
SMILES: CC(=O)N[C@@H](CCC(=O)O)C(=O)N[C@@H](CC(=O)O)C(=O)N[C@@H](CC(=O)O)C(=O)N[C@@H](CO)C(=O)N[C@@H](CC(=O)O)C(=O)N[C@H](C(=O)N[C@@H](Cc1c[nH]c2ccccc12)C(=O)N[C@@H](Cc1ccc(OCc2ccccc2)cc1)C(=O)NCC(=O)NCC(=O)N[C@@H](C)C(=O)N[C@@H](CC(=O)O)C(=O)N[C@H](C(=O)N[C@@H](CC(=O)O)C(N)=O)[C@@H](C)O)C(C)C

Ki: 373 nM
B5: EDDS(3Pal)… (peptide)
peptide: Ac-EDDS[3Pal]VWWGGADTD-NH2
SMILES: CC(=O)N[C@@H](CCC(=O)O)C(=O)N[C@@H](CC(=O)O)C(=O)N[C@@H](CC(=O)O)C(=O)N[C@@H](CO)C(=O)N[C@@H](Cc1cccnc1)C(=O)N[C@H](C(=O)N[C@@H](Cc1c[nH]c2ccccc12)C(=O)N[C@@H](Cc1c[nH]c2ccccc12)C(=O)NCC(=O)NCC(=O)N[C@@H](C)C(=O)N[C@@H](CC(=O)O)C(=O)N[C@H](C(=O)N[C@@H](CC(=O)O)C(N)=O)[C@@H](C)O)C(C)C

Ki: 1.5 nM
B6: peptide 20 (peptide)
peptide: EDDDAIDWYDSDDD
modifications: N-terminal acetyl; C-terminal amide; 2Nala (3-(2-naphthyl)-L-alanine) at position 5

Ki: 69 nM
B7: EDDS(1Nala)… (peptide)
peptide: Ac-EDDS[1Nal]VWWGGADTD-NH2
SMILES: CC(=O)N[C@@H](CCC(=O)O)C(=O)N[C@@H](CC(=O)O)C(=O)N[C@@H](CC(=O)O)C(=O)N[C@@H](CO)C(=O)N[C@@H](Cc1cccc2ccccc12)C(=O)N[C@H](C(=O)N[C@@H](Cc1c[nH]c2ccccc12)C(=O)N[C@@H](Cc1c[nH]c2ccccc12)C(=O)NCC(=O)NCC(=O)N[C@@H](C)C(=O)N[C@@H](CC(=O)O)C(=O)N[C@H](C(=O)N[C@@H](CC(=O)O)C(N)=O)[C@@H](C)O)C(C)C

Ki: 13 nM
B8: R4-21 (peptide)
peptide: Ac-RRRREDDD[2Nal]IDWGPTSDDD-NH2
SMILES: CC[C@H](C)[C@H](NC(=O)[C@H](Cc1ccc2ccccc2c1)NC(=O)[C@H](CC(=O)O)NC(=O)[C@H](CC(=O)O)NC(=O)[C@H](CC(=O)O)NC(=O)[C@H](CCC(=O)O)NC(=O)[C@H](CCCNC(=N)N)NC(=O)[C@H](CCCNC(=N)N)NC(=O)[C@H](CCCNC(=N)N)NC(=O)[C@H](CCCNC(=N)N)NC(C)=O)C(=O)N[C@@H](CC(=O)O)C(=O)N[C@@H](Cc1c[nH]c2ccccc12)C(=O)NCC(=O)N1CCC[C@H]1C(=O)N[C@H](C(=O)N[C@@H](CO)C(=O)N[C@@H](CC(=O)O)C(=O)N[C@@H](CC(=O)O)C(=O)N[C@@H](CC(=O)O)C(N)=O)[C@@H](C)O

Ki: 101 nM
B9: EDDS(Omtyr)… (peptide)
peptide: Ac-EDDS[Tyr(Me)]VWWGGADTD-NH2
SMILES: COc1ccc(C[C@H](NC(=O)[C@H](CO)NC(=O)[C@H](CC(=O)O)NC(=O)[C@H](CC(=O)O)NC(=O)[C@H](CCC(=O)O)NC(C)=O)C(=O)N[C@H](C(=O)N[C@@H](Cc2c[nH]c3ccccc23)C(=O)N[C@@H](Cc2c[nH]c3ccccc23)C(=O)NCC(=O)NCC(=O)N[C@@H](C)C(=O)N[C@@H](CC(=O)O)C(=O)N[C@H](C(=O)N[C@@H](CC(=O)O)C(N)=O)[C@@H](C)O)C(C)C)cc1

Ki: 269 nM
Binder: Ac-EDDS[Phe(4-tBu)]VWWGGADTD-NH2 [EDDS(Buphe)…]

Ki: 424 nM
B10: EDDS(4Pal)… (peptide)
peptide: Ac-EDDS[4Pal]VWWGGADTD-NH2
SMILES: CC(=O)N[C@@H](CCC(=O)O)C(=O)N[C@@H](CC(=O)O)C(=O)N[C@@H](CC(=O)O)C(=O)N[C@@H](CO)C(=O)N[C@@H](Cc1ccncc1)C(=O)N[C@H](C(=O)N[C@@H](Cc1c[nH]c2ccccc12)C(=O)N[C@@H](Cc1c[nH]c2ccccc12)C(=O)NCC(=O)NCC(=O)N[C@@H](C)C(=O)N[C@@H](CC(=O)O)C(=O)N[C@H](C(=O)N[C@@H](CC(=O)O)C(N)=O)[C@@H](C)O)C(C)C

Ki: 184 nM
Binder: Ac-EDDS[Phe(4-NH2)]VWWGGADTD-NH2 [EDDS(Aphe)…]

Ki: 9 nM
Binder: Ac-RRREDDDWIDWGPTSDDD-NH2 [R3-17]

Ki: 499 nM
B11: EDDSDVW(1Nala)GGADTD (peptide)
peptide: Ac-EDDSDVW[1Nal]GGADTD-NH2
SMILES: CC(=O)N[C@@H](CCC(=O)O)C(=O)N[C@@H](CC(=O)O)C(=O)N[C@@H](CC(=O)O)C(=O)N[C@@H](CO)C(=O)N[C@@H](CC(=O)O)C(=O)N[C@H](C(=O)N[C@@H](Cc1c[nH]c2ccccc12)C(=O)N[C@@H](Cc1cccc2ccccc12)C(=O)NCC(=O)NCC(=O)N[C@@H](C)C(=O)N[C@@H](CC(=O)O)C(=O)N[C@H](C(=O)N[C@@H](CC(=O)O)C(N)=O)[C@@H](C)O)C(C)C

Ki: 117 nM
Binder: Ac-EDDS[Phe(4-F)]VWWGGADTD-NH2 [EDDS(Fphe)…]

Ki: 15 nM
Binder: Ac-RRRREDDDWIDWGPTSDDD-NH2 [4R-17]

Ki: 32 nM
Binder: Ac-RRRRREDDDWIDWGPTSDDD-NH2 […]

Ki: 12 nM
B12: ETEFI(Cya)WGPTGDED (peptide)
peptide: Ac-ETEFI[Cya]WGPTGDED-NH2
SMILES: CC[C@H](C)[C@H](NC(=O)[C@H](Cc1ccccc1)NC(=O)[C@H](CCC(=O)O)NC(=O)[C@@H](NC(=O)[C@H](CCC(=O)O)NC(C)=O)[C@@H](C)O)C(=O)N[C@@H](CS(=O)(=O)O)C(=O)N[C@@H](Cc1c[nH]c2ccccc12)C(=O)NCC(=O)N1CCC[C@H]1C(=O)N[C@H](C(=O)NCC(=O)N[C@@H](CC(=O)O)C(=O)N[C@@H](CCC(=O)O)C(=O)N[C@@H](CC(=O)O)C(N)=O)[C@@H](C)O

Ki: 15 nM
B13: R4-20 (peptide)
peptide: Ac-RRRREDDD[2Nal]IDWYDSDDD-NH2
SMILES: CC[C@H](C)[C@H](NC(=O)[C@H](Cc1ccc2ccccc2c1)NC(=O)[C@H](CC(=O)O)NC(=O)[C@H](CC(=O)O)NC(=O)[C@H](CC(=O)O)NC(=O)[C@H](CCC(=O)O)NC(=O)[C@H](CCCNC(=N)N)NC(=O)[C@H](CCCNC(=N)N)NC(=O)[C@H](CCCNC(=N)N)NC(=O)[C@H](CCCNC(=N)N)NC(C)=O)C(=O)N[C@@H](CC(=O)O)C(=O)N[C@@H](Cc1c[nH]c2ccccc12)C(=O)N[C@@H](Cc1ccc(O)cc1)C(=O)N[C@@H](CC(=O)O)C(=O)N[C@@H](CO)C(=O)N[C@@H](CC(=O)O)C(=O)N[C@@H](CC(=O)O)C(=O)N[C@@H](CC(=O)O)C(N)=O

Ki: 814 nM
B14: EDDSDVW(2Nala)GGADTD (peptide)
peptide: Ac-EDDSDVW[2Nal]GGADTD-NH2
SMILES: CC(=O)N[C@@H](CCC(=O)O)C(=O)N[C@@H](CC(=O)O)C(=O)N[C@@H](CC(=O)O)C(=O)N[C@@H](CO)C(=O)N[C@@H](CC(=O)O)C(=O)N[C@H](C(=O)N[C@@H](Cc1c[nH]c2ccccc12)C(=O)N[C@@H](Cc1ccc2ccccc2c1)C(=O)NCC(=O)NCC(=O)N[C@@H](C)C(=O)N[C@@H](CC(=O)O)C(=O)N[C@H](C(=O)N[C@@H](CC(=O)O)C(N)=O)[C@@H](C)O)C(C)C

Ki: 143000 nM
B15: RRRR(2Nala)… (peptide)
peptide: Ac-RRRR[2Nal]EDSDDYDDIDDDW-NH2
SMILES: CC[C@H](C)[C@H](NC(=O)[C@H](CC(=O)O)NC(=O)[C@H](CC(=O)O)NC(=O)[C@H](Cc1ccc(O)cc1)NC(=O)[C@H](CC(=O)O)NC(=O)[C@H](CC(=O)O)NC(=O)[C@H](CO)NC(=O)[C@H](CC(=O)O)NC(=O)[C@H](CCC(=O)O)NC(=O)[C@H](Cc1ccc2ccccc2c1)NC(=O)[C@H](CCCNC(=N)N)NC(=O)[C@H](CCCNC(=N)N)NC(=O)[C@H](CCCNC(=N)N)NC(=O)[C@H](CCCNC(=N)N)NC(C)=O)C(=O)N[C@@H](CC(=O)O)C(=O)N[C@@H](CC(=O)O)C(=O)N[C@@H](CC(=O)O)C(=O)N[C@@H](Cc1c[nH]c2ccccc12)C(N)=O

Reference: patent US20260193293A1, “PEPTIDES CAPABLE OF INHIBITING PROTEIN-PROTEIN INTERACTIONS AT GABAB1A SUBUNIT AND USES THEREOF” (UNIVERSITY OF COPENHAGEN, priority 2022, published 2026)
